Assay results as given in article PMC2885824.

Molecular target: human alpha-thrombin (Homo sapiens, UniProt P00734;P00734 328-363;364-622)
Assay: competition

GGTTGGTGTGGTTGG (structured_DNA) [15nt anti-thrombin DNA aptamer]
binding result: binds
